For two molecules, Kd results are on record in patent US11623960 (dated 2023).

A word on the Kd: it is the free concentration of one partner at which half of the binding sites on the other are occupied at equilibrium, for simple one-to-one binding. A low value points to a tighter complex.

Common to all, as to test: SPR
In general terms: In SPR one partner is held on a chip, and binding of the other changes the refractive index at the surface.

For one assay, the target named is T1, VEGFR2 (KDR) IgD6-7 (human, UniProt P35968).
T1 chain: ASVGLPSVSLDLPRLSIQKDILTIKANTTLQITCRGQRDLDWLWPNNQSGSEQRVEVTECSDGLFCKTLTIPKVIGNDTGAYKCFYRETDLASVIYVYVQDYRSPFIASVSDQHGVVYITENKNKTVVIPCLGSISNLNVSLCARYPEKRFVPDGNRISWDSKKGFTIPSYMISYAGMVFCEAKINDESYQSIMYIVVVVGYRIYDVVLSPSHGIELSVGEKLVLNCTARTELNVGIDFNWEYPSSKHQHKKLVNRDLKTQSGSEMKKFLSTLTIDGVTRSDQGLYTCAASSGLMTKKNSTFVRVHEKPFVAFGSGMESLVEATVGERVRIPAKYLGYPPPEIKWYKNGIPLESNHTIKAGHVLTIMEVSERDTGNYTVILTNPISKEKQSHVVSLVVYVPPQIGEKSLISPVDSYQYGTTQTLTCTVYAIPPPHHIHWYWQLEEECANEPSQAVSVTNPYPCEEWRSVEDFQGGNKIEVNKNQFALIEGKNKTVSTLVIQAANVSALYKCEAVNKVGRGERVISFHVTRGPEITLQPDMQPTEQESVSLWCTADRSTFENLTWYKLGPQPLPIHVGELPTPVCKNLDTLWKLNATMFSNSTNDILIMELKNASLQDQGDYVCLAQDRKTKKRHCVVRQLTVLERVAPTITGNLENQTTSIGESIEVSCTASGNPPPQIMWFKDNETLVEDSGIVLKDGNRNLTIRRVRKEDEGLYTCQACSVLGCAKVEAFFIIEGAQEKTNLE

The target of the next assay is T2, VEGFR3 (Flt-4) IgD6-7 (human, UniProt P35916).
T2 chain: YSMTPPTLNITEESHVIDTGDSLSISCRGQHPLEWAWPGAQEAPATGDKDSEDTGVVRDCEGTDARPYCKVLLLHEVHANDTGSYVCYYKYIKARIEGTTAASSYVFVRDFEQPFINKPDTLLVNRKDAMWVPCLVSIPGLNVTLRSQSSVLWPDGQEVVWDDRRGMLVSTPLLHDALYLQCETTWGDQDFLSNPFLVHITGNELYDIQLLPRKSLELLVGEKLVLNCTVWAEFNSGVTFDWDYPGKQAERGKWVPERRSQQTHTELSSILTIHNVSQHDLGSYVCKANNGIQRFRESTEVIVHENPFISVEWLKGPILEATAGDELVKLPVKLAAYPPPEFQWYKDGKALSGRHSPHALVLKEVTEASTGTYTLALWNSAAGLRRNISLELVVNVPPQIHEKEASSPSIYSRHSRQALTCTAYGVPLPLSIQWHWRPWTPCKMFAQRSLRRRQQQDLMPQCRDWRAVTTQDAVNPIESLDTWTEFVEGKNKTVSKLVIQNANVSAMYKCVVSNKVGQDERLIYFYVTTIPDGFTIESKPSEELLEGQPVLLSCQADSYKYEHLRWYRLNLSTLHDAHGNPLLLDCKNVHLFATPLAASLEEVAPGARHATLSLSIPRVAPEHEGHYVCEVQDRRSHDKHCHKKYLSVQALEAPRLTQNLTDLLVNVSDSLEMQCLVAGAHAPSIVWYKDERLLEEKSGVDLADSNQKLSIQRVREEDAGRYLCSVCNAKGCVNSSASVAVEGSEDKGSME

A further assay deals with T3, VEGFR2 (KDR) IgD4-7 (human, UniProt P35968).
T3 chain: T1 chain

For another assay, the target named is T4, VEGFR3 (Flt-4) IgD4-7 (human, UniProt P35916).
T4 chain: T2 chain

B1: R2C7-1 (antibody, V domains shown)
VH: EVQLQQSGPELVKPGASVKISCKASGYSFTDYFINWVIQRHGKSLEWVGRINPYNGGSFYNQKFKDKATLTVDKSSNIAHMELRSLASEDSAIYYCARSGGNGYDYWGQGTTLTVSS
VL: DIVMTQAAPSVPVIPGESVSISCRSSKSLLHSNGNTYLYWFLQRPGQSPQLLIYRMSNLASGVPDRFSGSGSGTAFTLRISRVEAEDVGVYYCMQHLEYPYTFGGGTKVEIK
Take B1: the Kd in the assay with VEGFR2 (KDR) IgD6-7 was 1.13 nM; with VEGFR3 (Flt-4) IgD6-7, 13 nM; with VEGFR2 (KDR) IgD4-7, 2.18 nM; with VEGFR3 (Flt-4) IgD4-7 it was 3.3 nM.

B2: R2C9-11 (antibody, V domains shown)
VH: QVQLQQPGAELVKPGASVKLSCKASGYTFTSYWMHWVKQRPGQGLEWIGEINPSNGRTNYNEKFKSKATLTVDKSSSTAYMQLSSLTSEDSAVYYCANLYFDVWGAGTTVTVSS
VL: DIVMTQSPSSLSVSAGEKVTMSCKSSQNLLNSGNQKYYLAWYQQKPGQPPKLLIYGASIRESGVPDRFIGSGSGTDFTLTISSVQAEDLAVYFCQSDHSYPYTFGGGTKLEIK
As for B2, the Kd was found to be 1.5 nM in the assay with VEGFR2 (KDR) IgD6-7, 4.8 nM in the assay with VEGFR3 (Flt-4) IgD6-7, 0.46 nM with VEGFR2 (KDR) IgD4-7 and 1.1 nM in the assay with VEGFR3 (Flt-4) IgD4-7.
